Measurements reported in US20160304617A1.

What was measured:
[1] = molecular target: Human 5T4 full length (human) (UniProt Q13641); assay: flow cytometry on MBA-MB-231 cells (as the row is labelled), 5 µg/ml probe, anti-Fc FITC
[2] = molecular target: Human 5T4 full length (human) (UniProt Q13641); assay: flow cytometry on MDAMB361 cells, 5 µg/ml probe, anti-Fc FITC
[3] = molecular target: Human 5T4 full length (human) (UniProt Q13641); assay: flow cytometry on BxPC3 cells, 5 µg/ml probe, anti-Fc FITC
[4] = molecular target: Human 5T4 full length (human) (UniProt Q13641); assay: flow cytometry on LNCaP cells, 5 µg/ml probe, anti-Fc FITC
[5] = molecular target: Human 5T4 full length (human) (UniProt Q13641); assay: flow cytometry on PC3 cells, 5 µg/ml probe, anti-Fc FITC
[6] = molecular target: Human 5T4 full length (human) (UniProt Q13641); assay: flow cytometry on A431 cells, 5 µg/ml probe, anti-Fc FITC
[7] = molecular target: Human 5T4 full length (human) (UniProt Q13641); assay: flow cytometry on PA1 cells, 5 µg/ml probe, anti-Fc FITC
[8] = molecular target: Human 5T4 full length (human) (UniProt Q13641); assay: flow cytometry on SKOV3 cells, 5 µg/ml probe, anti-Fc FITC
[9] = molecular target: Human 5T4 full length (human) (UniProt Q13641); assay: flow cytometry on DLD1 cells, 5 µg/ml probe, anti-Fc FITC
[10] = molecular target: Human 5T4 full length (human) (UniProt Q13641); assay: flow cytometry on Rec-MDA-MB-231-5T4 cells (as the row is labelled), 5 µg/ml probe, anti-Fc FITC
[11] = molecular target: Human 5T4 full length (human) (UniProt Q13641); assay: flow cytometry on HT29 cells, 5 µg/ml probe, anti-Fc FITC
[12] = molecular target: Human 5T4 full length (human) (UniProt Q13641); assay: flow cytometry on recombinant MDA-MB-231-5T4 FL cells at 5 µg/ml

Sequence of UniProt Q13641 (Q13641 32-420): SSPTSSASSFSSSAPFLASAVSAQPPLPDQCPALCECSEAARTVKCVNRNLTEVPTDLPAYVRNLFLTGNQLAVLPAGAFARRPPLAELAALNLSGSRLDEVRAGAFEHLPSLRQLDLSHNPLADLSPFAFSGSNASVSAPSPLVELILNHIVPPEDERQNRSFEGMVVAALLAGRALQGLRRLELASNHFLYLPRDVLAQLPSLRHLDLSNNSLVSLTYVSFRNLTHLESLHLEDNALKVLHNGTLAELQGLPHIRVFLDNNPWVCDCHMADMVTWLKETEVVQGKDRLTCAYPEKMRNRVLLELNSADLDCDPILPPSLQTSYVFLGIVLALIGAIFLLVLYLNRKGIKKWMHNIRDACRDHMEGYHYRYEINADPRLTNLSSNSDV

unrelated (control) Fc fusion protein showed a Median fluorescence intensity (MFI) [1] of 4 MFI, a Median fluorescence intensity (MFI) [2] of 5 MFI and a Median fluorescence intensity (MFI) [3] of 14 MFI. For the same substance, the Median fluorescence intensity (MFI) [4] was 23 MFI, the Median fluorescence intensity (MFI) [5] was 3 MFI and the Median fluorescence intensity (MFI) [6] was 13 MFI. It also gave a Median fluorescence intensity (MFI) [7] of 6 MFI, a Median fluorescence intensity (MFI) [8] of 6 MFI and a Median fluorescence intensity (MFI) [9] of 14 MFI. For the same substance, the Median fluorescence intensity (MFI) [10] was 8 MFI, the Median fluorescence intensity (MFI) [11] was 12 MFI and the fold less binding (against the anti-5T4 proteins) [12] was 200 fold.
